Target: activated complement component C3 (C3b) (UniProt P01024)
Experiment: SPR

- response (RU), median, C3b-chip 2: 17 RU
Substance: Factor B (natural protein)
